In patent US20230227538A1 (University of California, published 2023):
Where “and” joins values, the source holds several entries; their conditions need not be identical. Equal entries are not always repeated.

Assays:
[1] = biological target: T1, SARS-CoV-2 Spike ectodomain, stabilized prefusion trimer (spike ECD, Spike^S2P) (SARS-CoV-2); test: SPR, fast phase of a biphasic dissociation from Spike^S2P
T1 construct: also called SC2 Spike ECD; Spike trimer

[2] = biological target: T1, SARS-CoV-2 Spike ectodomain, stabilized …; test: SPR on captured Spike^S2P
[3] = biological target: T1, SARS-CoV-2 Spike ectodomain, stabilized …; test: SPR, slow phase of a biphasic dissociation from Spike^S2P
[4] = biological target: Spike protein of live SARS-CoV-2 (isolate France/IDF0372/2020) (SARS-CoV-2, UniProt P0DTC2 14-1273); test: cell-based or functional assay
[5] = biological target: T1, SARS-CoV-2 Spike ectodomain, stabilized …; test: SPR
[6] = biological target: T1, SARS-CoV-2 Spike ectodomain, stabilized …; test: SPR, no measurable dissociation over ten minutes
[7] = biological target: T1, SARS-CoV-2 Spike ectodomain, stabilized …; test: SPR, Spike^S2P captured on a StreptactinXT chip
[8] = biological target: T1, SARS-CoV-2 Spike ectodomain, stabilized …
[9] = biological target: T1, SARS-CoV-2 Spike ectodomain, stabilized …; remark: listed apart in the source

| Binder | koff [1] | fold gain in KD against Nb6 [2] | koff [3] | EC50 [8] | further results |
| --- | --- | --- | --- | --- | --- |
| Nb6-bi (bivalent Nb6 with a 15 amino acid linker) (VHH) QVQLVESGGGLVQAGGSLRLSCAASGIIFGRNAMGWYRQAPGKERELVAGITRRGSITYYADSVKGRFTISRDNAKNTVYLQMNSLKPEDTAVYYCAADPASPAPGDYWGQGTQVTVSSGGGGSGGGGSGGGGSQVQLVESGGGLVQAGGSLRLSCAASGIIFGRNAMGWYRQAPGKERELVAGITRRGSITYYADSVKGRFTISRDNAKNTVYLQMNSLKPEDTAVYYCAADPASPAPGDYWGQGTQVTVSS | 0.027 s⁻¹ | 750 fold | 0.00031 s⁻¹ |  |  |
| Nb6-tri (trivalent Nb6 with two 20 amino acid linkers) (VHH) QVQLVESGGGLVQAGGSLRLSCAASGIIFGRNAMGWYRQAPGKERELVAGITRRGSITYYADSVKGRFTISRDNAKNTVYLQMNSLKPEDTAVYYCAADPASPAPGDYWGQGTQVTVSSGGGGSGGGGSGGGGSGGGGSQVQLVESGGGLVQAGGSLRLSCAASGIIFGRNAMGWYRQAPGKERELVAGITRRGSITYYADSVKGRFTISRDNAKNTVYLQMNSLKPEDTAVYYCAADPASPAPGDYWGQGTQVTVSSGGGGSGGGGSGGGGSGGGGSQVQLVESGGGLVQAGGSLRLSCAASGIIFGRNAMGWYRQAPGKERELVAGITRRGSITYYADSVKGRFTISRDNAKNTVYLQMNSLKPEDTAVYYCAADPASPAPGDYWGQGTQVTVSS | 0.029 s⁻¹ | > 200000 fold | < 1e-06 s⁻¹ |  | IC50, plaque assay with live SARS-CoV-2 on VeroE6 cells [4]: 0.16 nM |
| mNb6-tri (trivalent mNb6 with a 20 amino acid linker) (VHH) QVQLVESGGGLVQAGGSLRLSCAASGYIFGRNAMGWYRQAPGKERELVAGITRRGSITYYADSVKGRFTISRDNAKNTVYLQMNSLKPEDTAVYYCAADPASPAYGDYWGQGTQVTVSSGGGGSGGGGSGGGGSGGGGSQVQLVESGGGLVQAGGSLRLSCAASGYIFGRNAMGWYRQAPGKERELVAGITRRGSITYYADSVKGRFTISRDNAKNTVYLQMNSLKPEDTAVYYCAADPASPAYGDYWGQGTQVTVSSGGGGSGGGGSGGGGSGGGGSQVQLVESGGGLVQAGGSLRLSCAASGYIFGRNAMGWYRQAPGKERELVAGITRRGSITYYADSVKGRFTISRDNAKNTVYLQMNSLKPEDTAVYYCAADPASPAYGDYWGQGTQVTVSS |  |  |  |  | Kd [5]: < 0.001 nM; dissociation half-life t½ [5]: > 192 h; koff [6]: < 1e-06 s⁻¹; IC50, live SARS-CoV-2 infection assay [4]: 54 pM and 2.3 ng/mL |
| Nb6 (AeroNab6, NbCOV6, clone pNbCOV006A) (VHH, also called AeroNab6 MASC monomer; Parent clone (NbCOV6)) VHH: QVQLVESGGGLVQAGGSLRLSCAASGIIFGRNAMGWYRQAPGKERELVAGITRRGSITYYADSVKGRFTISRDNAKNTVYLQMNSLKPEDTAVYYCAADPASPAPGDYWGQGTQVTVSS |  |  |  | 359 nM | Kd [7]: 210 nM; koff [2]: 0.056 s⁻¹; IC50 [9]: 370 nM |
| mNb6 (matured Nb6, mNbCOV6, AeroNab6m) (VHH) VHH: QVQLVESGGGLVQAGGSLRLSCAASGYIFGRNAMGWYRQAPGKERELVAGITRRGSITYYADSVKGRFTISRDNAKNTVYLQMNSLKPEDTAVYYCAADPASPAYGDYWGQGTQVTVSS |  |  |  | 0.056 nM |  |
